Molecular target: RNA polymerase II;RECQL5;CSB;CSA-DDB1;UVSSA;ELOF1 (Sus scrofa domesticus?;Homo …, UniProt A0A8D1DPV6;A0A0B8RVL1;P19387;O15514;I3LSI7;P61218;P62487;P52434;P36954;P52435;P6 …, |||||)
Test: cryo-EM; 1 mM ADP; phosphorylated Pol II; glutaraldehyde cross-linked; 3.5 A; EMSA: 20 mM HEPES pH 7.5, 66 mM NaCl, 5% glycerol, 1 mM DTT, 0.25 mg/ml BSA, on ice 30 min; 6% gel, 0.5x TBE, 4 C
Settings: protein: native;recombinant;recombinant;recombinant;recombinant;recombinant; copies: 1;1;1;1;1;1;1;1;1;1;1;1;1;1;1;1;1;1; 15-nt mismatch bubble; RNA 45 nt, 3' end hybridized to template

B1: EC-TCR DNA-RNA scaffold (mixed)
DNA 1: CGCTCTGCTCCTTCTCCCATCCTCTCGATGGCTATGAGATCAACTAG
DNA 2: CTAGTTGATCTCATATTTCATTCCTACTCAGGAGAAGGAGCAGAGCG
RNA: ACAUCAUAACAUUUGAACAAGAAUAUAUAUACAAAAUCGAGAGGA
B1: binds.
